B1: Vacuolar protein sorting-associated protein 33A (Homo sapiens), Q96AX1 (parent)
chain: MAAHLSYGRVNLNVLREAVRRELREFLDKCAGSKAIVWDEYLTGPFGLIAQYSLLKEHEVEKMFTLKGNRLPAADVKNIIFFVRPRLELMDIIAENVLSEDRRGPTRDFHILFVPRRSLLCEQRLKDLGVLGSFIHREEYSLDLIPFDGDLLSMESEGAFKECYLEGDQTSLYHAAKGLMTLQALYGTIPQIFGKGECARQVANMMIRMKREFTGSQNSIFPVFDNLLLLDRNVDLLTPLATQLTYEGLIDEIYGIQNSYVKLPPEKFAPKKQGDGGKDLPTEAKKLQLNSAEELYAEIRDKNFNAVGSVLSKKAKIISAAFEERHNAKTVGEIKQFVSQLPHMQAARGSLANHTSIAELIKDVTTSEDFFDKLTVEQEFMSGIDTDKVNNYIEDCIAQKHSLIKVLRLVCLQSVCNSGLKQKVLDYYKREILQTYGYEHILTLHNLEKAGLLKPQTGGRNNYPTIRKTLRLWMDDVNEQNPTDISYVYSGYAPLSVRLAQLLSRPGWRSIEEVLRILPGPHFEERQPLPTGLQKKRQPGENRVTLIFFLGGVTFAEIAALRFLSQLEDGGTEYVIATTKLMNGTSWIEALMEKPF
partner: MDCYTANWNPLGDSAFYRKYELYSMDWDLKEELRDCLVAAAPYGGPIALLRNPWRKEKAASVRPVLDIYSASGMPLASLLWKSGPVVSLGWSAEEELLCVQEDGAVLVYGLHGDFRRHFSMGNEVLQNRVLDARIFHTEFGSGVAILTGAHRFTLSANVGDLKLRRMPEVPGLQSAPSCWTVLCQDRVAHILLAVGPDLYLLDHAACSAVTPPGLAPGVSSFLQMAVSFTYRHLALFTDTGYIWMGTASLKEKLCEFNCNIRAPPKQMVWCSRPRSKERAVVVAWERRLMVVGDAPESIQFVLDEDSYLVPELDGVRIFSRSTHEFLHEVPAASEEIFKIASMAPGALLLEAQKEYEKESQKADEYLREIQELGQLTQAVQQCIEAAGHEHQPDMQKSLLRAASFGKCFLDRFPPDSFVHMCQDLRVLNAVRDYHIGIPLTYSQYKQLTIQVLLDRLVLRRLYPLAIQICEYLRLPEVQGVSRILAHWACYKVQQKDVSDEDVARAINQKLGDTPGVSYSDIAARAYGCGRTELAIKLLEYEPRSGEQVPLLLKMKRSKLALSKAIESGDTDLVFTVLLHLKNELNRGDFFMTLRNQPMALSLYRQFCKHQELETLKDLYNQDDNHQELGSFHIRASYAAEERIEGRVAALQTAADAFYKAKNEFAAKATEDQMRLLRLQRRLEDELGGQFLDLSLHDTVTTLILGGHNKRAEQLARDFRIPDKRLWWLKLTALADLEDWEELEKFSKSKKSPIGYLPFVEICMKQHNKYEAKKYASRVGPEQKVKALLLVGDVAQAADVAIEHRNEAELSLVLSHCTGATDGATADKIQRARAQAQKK
B2: Vacuolar protein sorting-associated protein 16 homolog (Homo sapiens), Q9H269 (parent)
chain: B1 partner
partner: B1 chain

Variants of: B1
Conditions: with vps16_human VPS16, Q9H269

Row | effect of a mutation on the interaction | Variant
1 | disrupting interaction strength | Y438P
2 | disrupting interaction | Y438D
3 | disrupting interaction | I441K
4 | disrupting interaction | K429D

Variants of: B2
Conditions: with vp33a_human VPS33A

Row | effect of a mutation on the interaction | Variant
5 | decreasing interaction | A669D
6 | disrupting interaction | R725E

— IntAct's records for PubMed 23901104
